Experiments:
[1] = biological target: T1, Hfq;Crc (Pseudomonas aeruginosa;Pseudomonas aeruginosa) (UniProt Q9HUM0+Q51380); assay: EMSA; conditions: EMSA: 20 mM Tris-HCl pH 8.0, 40 mM NaCl, 10 mM KCl, 1 mM MgCl2; 200 nM RNA; 15 min at 37 C; 4% PAA gel in 1x TBE at 4 C, SYBR gold
[2] = biological target: T1, Hfq;Crc (Pseudomonas aeruginosa;Pseudomonas aeruginosa); assay: cryo-EM; conditions: EMSA: 20 mM Tris-HCl pH 8.0, 40 mM NaCl, 10 mM KCl, 1 mM MgCl2; 200 nM RNA; 15 min at 37 C; 4% PAA gel in 1x TBE at 4 C, SYBR gold

Sequence	binding [1]	binding [2]
GGAACGCAAACGUUUGCGUCUGGAUAAUCUCCUGGAAAAGCCUCAAUACAACGAUAAGAAAAGCUGGAGGAUACACCAUGAAGCGGGUCGCUUCCCGGCGCCUGUUGGCU [rbsB110]	binds	binds
GGGCCUUUUUUCGUCCCGAAAAAAUAACAACAAGAGGUGAUAUCCAUGCGUCACGGCGAUAUUUCCAGCAGCAACGACACCGUCGGAGUGGCGGUGGUCAACUAC [amiE105]	binds	binds
GGCUGAGGAGGCUUUACGACGGGCCCCGGGGCGCAUGCCGACGACGCGGCGGCCCGACAAUAAAAACAAAUCAUGGAGUAAGAGAAUGAUCAGAAUGGCGCUCAAGCCACUGGUAGCG [estA118]	binds	binds

Reference: publication PMC9890229
